# Assay results taken from patent US12365732 (23ANDME, dated 2025).
# Residue numbers refer to the chain shown, from its start. Names may count otherwise.
# T1: hu-CD96 isoform 2 on CHO cells (human, UniProt P40200 22-585)
# T1 construct: also called CHO-CD96 (isoform 2); CD96-CHOs
# T1 sequence: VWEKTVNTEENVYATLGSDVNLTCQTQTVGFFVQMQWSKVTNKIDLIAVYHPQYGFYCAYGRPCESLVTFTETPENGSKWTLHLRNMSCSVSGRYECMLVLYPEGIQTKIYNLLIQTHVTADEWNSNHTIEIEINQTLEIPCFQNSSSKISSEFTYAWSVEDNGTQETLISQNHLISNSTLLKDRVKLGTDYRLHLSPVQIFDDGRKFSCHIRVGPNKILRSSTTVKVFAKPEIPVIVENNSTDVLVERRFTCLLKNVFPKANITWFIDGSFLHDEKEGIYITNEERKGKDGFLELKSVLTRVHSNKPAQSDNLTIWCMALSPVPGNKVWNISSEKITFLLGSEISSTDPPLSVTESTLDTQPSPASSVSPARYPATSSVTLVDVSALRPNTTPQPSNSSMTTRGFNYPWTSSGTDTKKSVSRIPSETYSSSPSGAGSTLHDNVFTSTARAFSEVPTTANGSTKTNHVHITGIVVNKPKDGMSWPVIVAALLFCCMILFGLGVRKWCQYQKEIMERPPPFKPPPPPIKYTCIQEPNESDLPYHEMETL
# B1: 7E5, purified hybridoma antibody (antibody, V domains shown)
# VH: QVQLKESGPGLVAPSQSLSIICTVSGFSLTNYGIHWIRQPPGKGLEWLGIIWAGGSTNYNSALMSRLTISKDNSKSQVFLKMNSLQTNDTAIYYCARVSMMGFAYWGQGTLVTVSA
# VL: QAVVTQESALTTSPGETVTLTCRSSTGAVTTSNYANWVQEKPDHLFTGLIGGTNNRAPGVPARFSGSLIGDKAALTITGAQTEDEAIYFCSLWYGSHWVFGGGTKLTVL
# notes: murine hybridoma IgG
# B2: 9H4, purified hybridoma antibody (antibody, V domains shown)
# VH: EVQLLETGGGLVKSGGSLKLSCAASGFTFSDYYMYWVRQTPEKRLEWVAAISDDGTYTYYPDSVKGRFTISRDNANNYLYLQMSSLKSEDTAIYYCAKAGSYDYFDVWGAGTTVTVSS
# VL: DIVLTQSPASLAVSLGQRAIISCKASQSVTFADTGLMHWYQQKPGQQPKLLIYRASNLEVGVPTRFSGSGSGTDFTLNIHPVEEEDVATYYCQQSREYPWTFGGGTKLEIK
# notes: murine hybridoma IgG
# B3: mAb1.v7 IgG (humanized 12F8) (antibody, V domains shown)
# VH: EVQLVQSGAEVKKPGASVKVSCKASGFTFTNNWMHWVRQAPGQGLEWIGMIHPNSGITNINEKFKNRVTMTTDTSTSTAYMELRSLRSEDTAVYYCRSDGTYEGYFDYWGQGTLVTVSS
# VL: DIQLTQSPSSLSASVGDRVTITCKASQNVGTAIVWYQQKPGKAPKVLIYSASTRYTGVPSRFSGSGSGTDFTLTISSLQPEDFATYYCQQYSSSPLTFGQGTKVEIKG
# notes: human IgG1 N297G
# B4: 10G1 (clone 10G1.3G8), purified hybridoma antibody (antibody, V domains shown)
# VH: QIQLVQSGPELKKPGETVKISCKASGYPFTTYGMSWVKQAPGKGLKWMGWINTDSGVPTYADDFKGRFAFSLETSANTAYLQINSLKNEDAATYFCARNIYYGWGNFDYWGQGTILTVSS
# VL: DILMTQSPTTLSVTPGETVSLSCRASQDIYRNLHWYQQKSQGTPRLLIKHASDSISGIPSRFTGSGSGTDFTLSINSVKPEDEGIYYCLQGYSMPYTFGGGTKLEIK
# notes: murine hybridoma IgG
# B5: mAb1.v7.NGS9 IgG (antibody, V domains shown)
# VH: B3 VH with W33F, P53A, T101V
# VL: B3 VL
# notes: human IgG1 N297G
# B6: mAb1.v7.NGS11 IgG (antibody, V domains shown)
# VH: B3 VH with W33F, M50F, P53A, T101V
# VL: B3 VL
# notes: human IgG1 N297G
# B7: mAb1.v7.NGS10 IgG (antibody, V domains shown)
# VH: B3 VH with W33F, M50F, P53A, T101I
# VL: B3 VL
# notes: human IgG1 N297G
# B8: h10G1 IgG (humanized 10G1) (antibody, V domains shown)
# VH: EIQLVQSGSELKKPGASVKVSCKASGYPFTTYGMSWVRQAPGQGLEWMGWINTDSGVPTYADDFKGRFVFSLDTSVSTAYLQISSLKAEDTAVYFCARNIYYGWGNFDYWGQGTLVTVSS
# VL: EIVMTQSPDFQSVTPKEKVTITCRASQDIYRNLHWYQQKPDQTPKLLIKHASDSISGIPSRFSGSGSGTDFTLTINSLEAEDAAAYYCLQGYSMPYTFGGGTKVEIKG
# notes: human IgG1 N297G
# Biological target: T1, hu-CD96 isoform 2 on CHO cells
# Assay: FACS, Ab 0.08 nM
# Protocol: (§1) Isoform 1 of hu-CD96 (Origene, catalog #RC213845) was transiently expressed in HEK293T cells following standard lipofectamine or Fugene transfection protocol. […] Cells were washed, and binding was detected by incubation with anti-mouse IgG-FITC (Biolegend, catalog #406001) for 20 minutes at 4° C. Cell binding was analyzed by flow cytometry with a CytoFLEX (Beckman Coulter). Binding curves were calculated as a percentage of cells positive for bound antibody.
# (§2) Isoform 2 of hu-CD96 (DNA construct: Origene, catalog #RC221005) was expressed on a single-cell-clone-derived CHO stable cell line. Binding of the anti-CD96 antibodies to the CHO cells were determined as described above with isoform 1 of hu-CD96.
row,Binder,% positive
1,B1,24.6%
2,B2,3.1%
3,B3,1.4%
4,B4,9.4%

# Biological target: T1, hu-CD96 isoform 2 on CHO cells
# Assay: FACS, Ab 10 nM
# Protocol: as §1, §2
row,Binder,% positive
1,B1,56.1%
2,B2,46.1%
3,B3,44.8%
4,B4,39.2%

# Biological target: T1, hu-CD96 isoform 2 on CHO cells
# Assay: FACS, CD155-Fc-FLAG 10 nM, Ab 0.16 nM
# Protocol: CHO cells stably expressing isoform 2 of hu-CD96 (Origene, catalog #RC221005) were incubated with anti-CD96 antibodies for 20 minutes at 4° C. The cells were washed, and then incubated with 10 nM human CD155-Fc-FLAG for 30 minutes at 4° C. Cells were washed, and then human CD155-Fc-FLAG binding was detected by incubation with anti-FLAG-APC (Columbia Biosciences, catalog #D3-1718-1MG) for 20 minutes at 4° C. Cell binding was analyzed by flow cytometry with a CytoFLEX (Beckman Coulter). CD155 binding is represented as median fluorescence intensity (MedFI).
# As shown in Table 20 (below), the anti-CD96 antibodies, mAb1.v7.NGS8, mAb1.v7.NGS9, mAb1.v7.NGS10, mAb1.v7.NGS11, and h10G1 inhibited soluble hu-CD155 binding to CD96-expressing CHO cells dose-dependently and potently. The antibody NK92.39 (Fuchs et al., 2004; Biolegend catalog #338405) inhibited receptor binding similarly.
row,Binder,CD155-Fc binding (MedFI)
1,B5,54600 MedFI
2,B6,51900 MedFI
3,B7,54100 MedFI
4,B8,21200 MedFI

# Biological target: hu-CD96D1 D3-hFc (human)
# Assay: ELISA, coated CD96D1D3-hFc
# Protocol: (§3) CD96 binding of purified hybridoma antibodies: The hu-CD96 and cy-CD96 antigen binding ELISA was performed on the purified hybridoma antibodies. Briefly, 96-well MAXISORP® flat bottom plates (Thermo Fisher Scientific, Waltham, MA; Cat #439454) were coated overnight at 4° C. with 0.5 µg/mL of hu-CD96D1 D3-hFc and cynomolgus monkey CD96D1 D3-hFc in PBS. After removing the coating solution, unspecific binding was blocked by PBS containing 1% bovine serum albumin (blocking buffer) and incubation at room temperature for one hour. Plates were then washed three times with PBS and 0.05% TWEEN®-20 (wash buffer). Serial dilution of purified antibodies in PBS containing 0.5% BSA and 0.05% Tween 20 (ELISA buffer) was added to individual wells followed by incubation at room temperature for one hour with agitation. Plates were washed three times with wash buffer, then 100 µL/well of anti-mouse IgG-HRP (Thermo Fisher Scientific, Waltham, MA; Cat #626520) in ELISA buffer was added. […] Enzymatic color development was stopped with 50 µL/well of TMB stop solution (VWR/Avantor, Radnor, PA, USA; Cat #95059-200). Plates were analyzed with a SpectraMax i3X plate reader (Molecular Devices LLC, San Jose, CA, USA) at 450 nm.
row,Binder,EC50
1,B1,0.06 nM
2,B2,0.24 nM
3,B4,0.03 nM

# Biological target: T2, cynomolgus monkey CD96D1 D3-hFc (cynomolgus monkey)
# T2 construct: also called cy-CD96D1 D3
# Assay: ELISA, coated CD96D1D3-hFc
# Protocol: as §3
Binder,EC50,binding result
B1,0.53 nM,–
B2,–,no binding
B4,0.2 nM,–
